Laboratory results: the supplement of paper PMC7877785
± gives the uncertainty stated by the source.

Experiment: self-splicing fitness, log relative to wild type (ln ratio); higher = more splicing; Tetrahymena group I intron in knt gene, E. coli kanamycin selection, DiMSum; sequences stand for … in CUCUCU…GGAGGGAAAAGUUAUCAGGCAUGCACCUGGUAGCUAGUCUUUAAACCAAUAGAUUGCAUCGGUUUAAAAGGCAAGACCGUCAAAUUGCGGGAAAGGGGUCAACAGCCGUUCAGUACCAAGUCUCAGGGGAAACUUUGAGAUGGCCUUGCAAAGGGUAUGGUAAUAAGCUGACGGACAUGGUCCUAACCACGCAGCCAAGUCCUAAGUCAACAGAUCUUCUGUUGAUAUGGAUGCAGUUCACAGACUAAAUGUCGGUCGGGGAAGAUGUAUUCUUCUCAUAAGAUAUAGUCGGACCUCUCCUUAAUGGGAGCUAGCGGAUGAAGUGAUGCAACACUGGAGCCGCUGGGAACUAAUUUGUAUGCGAAAGUAUAUUGAUUAGUUUUGGAGUACUCGUGGUCG
How it was run: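 Six replicate transformations of E. coli BL21(DE3) with a pET-22b(+) library were grown overnight at 37°C or 30°C. The library randomised all eight P1ex-region intron nucleotides, the intron lying in the knt kanamycin-resistance gene, and plates were LB agar with or without 25 μg/mL kanamycin plus 100 μg/mL carbenicillin, 50 μM IPTG and 0.2% rhamnose. Pooled colonies were amplicon-sequenced on an Illumina HiSeq 2500, and fitness is the DiMSum error-weighted combination of wild-type-normalised replicate fold changes, kanamycin versus none.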

Row | Sequence | self-splicing fitness (ln) (30 °C) | self-splicing fitness (ln) (37 °C)
1 | AAGGAGCAAUAUUACGGUUC | -1.51 ± 0.17 | -2.92 ± 0.35
2 | GGACAGCAAUAUUACGGGCU | -1.89 ± 0.14 | -0.458 ± 0.13
3 | UGAAAGCAAUAUUACGAUAC | -2.87 ± 0.19 | -2.8 ± 0.33
4 | CUUGAGCAAUAUUACGCACG | -3.3 ± 0.44 | -2.48 ± 0.43
5 | AUUGAGCAAUAUUACGUAAC | -1.3 ± 0.3 | -1.53 ± 0.31
6 | GGACAGCAAUAUUACGACGC | -0.126 ± 0.065 | 0.658 ± 0.11
7 | CACUAGCAAUAUUACGGUGA | -3.47 ± 0.21 | -2.22 ± 0.18
8 | ACCUAGCAAUAUUACGGAUC | -2.65 ± 0.13 | -1.35 ± 0.15
9 | UCGUAGCAAUAUUACGAACA | -2.55 ± 0.28 | -1.82 ± 0.2
10 | AACGAGCAAUAUUACGGAUU | -2.3 ± 0.14 | -1.4 ± 0.19
11 | UAGGAGCAAUAUUACGCCCG | -1.53 ± 0.19 | -0.352 ± 0.17
12 | UAUCAGCAAUAUUACGUCCC | -2.83 ± 0.34 | 0.683 ± 0.26
13 | UGUGAGCAAUAUUACGGAAG | -2.97 ± 0.25 | -1.76 ± 0.26
14 | UGACAGCAAUAUUACGGCCA | -0.00432 ± 0.11 | 0.373 ± 0.13
15 | CUACAGCAAUAUUACGCCAC | -3.68 ± 0.33 | 
16 | GCCUAGCAAUAUUACGAGGA | -0.444 ± 0.06 | -0.065 ± 0.067
17 | UCCCAGCAAUAUUACGACUU | -3.04 ± 0.17 | -1.79 ± 0.14
18 | GGGCAGCAAUAUUACGUUGA | -1.3 ± 0.081 | -0.64 ± 0.098
19 | UAACAGCAAUAUUACGGCGC | -2.5 ± 0.13 | -1.44 ± 0.13
20 | CUUAAGCAAUAUUACGCUAC | -4.22 ± 0.42 | -2.34 ± 0.36
21 | AAUAAGCAAUAUUACGCAUC | -2.56 ± 0.12 | -1.66 ± 0.15
22 | UGUCAGCAAUAUUACGCGUA | -0.0687 ± 0.063 | 0.148 ± 0.073
23 | UGAGAGCAAUAUUACGGCUC | -3.55 ± 0.36 | 
24 | ACCUAGCAAUAUUACGUGUU | -3.18 ± 0.1 | -1.4 ± 0.085
25 | GCCUAGCAAUAUUACGAUUG | -2.49 ± 0.23 | -2.32 ± 0.26

Row | Sequence | self-splicing fitness (ln) (30 °C) | self-splicing fitness (ln) (37 °C)
26 | GCACAGCAAUAUUACGGACA | -1.02 ± 0.1 | -0.584 ± 0.11
27 | AGCCAGCAAUAUUACGACCC | -1.46 ± 0.34 | -0.503 ± 0.24
28 | GUUAAGCAAUAUUACGAUCG | -2.08 ± 0.25 | -1.18 ± 0.22
29 | CUACAGCAAUAUUACGACCU | -4.15 ± 0.46 | -0.863 ± 0.17
30 | CGGGAGCAAUAUUACGAAGU |  | -1.89 ± 0.43
31 | CAGCAGCAAUAUUACGACUU | -0.431 ± 0.068 | 0.69 ± 0.083
32 | CAAUAGCAAUAUUACGUUUG | -2.52 ± 0.11 | -1.52 ± 0.11
33 | GGUGAGCAAUAUUACGGGCA | -1.68 ± 0.17 | -0.406 ± 0.17
34 | UCCAAGCAAUAUUACGUUGC | -3.7 ± 0.17 | -2.41 ± 0.19
35 | ACCGAGCAAUAUUACGUAUA | -3.96 ± 0.35 | -2.6 ± 0.27
36 | GGGCAGCAAUAUUACGGGGC | -0.887 ± 0.22 | -1.9 ± 0.42
37 | CGUAAGCAAUAUUACGAGGA |  | -1.75 ± 0.33
38 | UAGCAGCAAUAUUACGGCUA | -2.89 ± 0.39 | -1.33 ± 0.28
39 | AAGAAGCAAUAUUACGGUCG | -0.736 ± 0.073 | -0.121 ± 0.1
40 | CGGUAGCAAUAUUACGGAGU | -3.33 ± 0.28 | -3.27 ± 0.35
41 | CGUAAGCAAUAUUACGCGUU | -3.69 ± 0.36 | -2.31 ± 0.32
42 | UCCAAGCAAUAUUACGUGCG | -3.59 ± 0.15 | -1.68 ± 0.13
43 | GCCAAGCAAUAUUACGUCCC | -0.579 ± 0.15 | -0.607 ± 0.3
44 | GCCAAGCAAUAUUACGCCGG | -2.18 ± 0.26 | -2.13 ± 0.4
45 | GUCCAGCAAUAUUACGAAUC | 0.437 ± 0.16 | 0.114 ± 0.2
46 | UCGCAGCAAUAUUACGGCAG | -0.619 ± 0.1 | -0.379 ± 0.11
47 | AAUAAGCAAUAUUACGGAAG | -3.52 ± 0.28 | -1.86 ± 0.39
48 | ACGCAGCAAUAUUACGUAAC | -3.99 ± 0.22 | -2.37 ± 0.23
49 | CUUGAGCAAUAUUACGCCCG | -2.41 ± 0.46 | 
